One substance from paper PMC5466808 can be followed below.

Values joined by “and” are separate entries in the source; they are usually repeats but may differ in a detail not shown here. Equal entries are not always repeated. Where two headings read alike, the source gives them in different places.

In test [1] the target is full length human G208C NFU1 (human) (UniProt Q9UMS0). The test can be described thus: AUC.
Test [2] shares this target. Briefly: AUC. This is another data set of the same source.

In general, stoichiometry N refers to a count of units in the complex or per binding partner. In test [1], “full length human G208C NFU1 (from UniProt Q9UMS0 10-254) (natural protein)” returned a percent dimer (with 1 mM TCEP) of 60%, a percent dimer (without TCEP) of 58%, a percent higher order oligomer (with 1 mM TCEP) of 1.5% and a percent higher order oligomer (without TCEP) of 6%. In addition, in test [1], the percent monomer (with 1 mM TCEP) was found to be 30%, the percent monomer (without TCEP) was determined as 29% and the stoichiometry N amounted to 2. For the same substance, in test [2], the percent dimer (holo protein) is 65.6%; the stoichiometry N is 2 and 4.
